Literature values as cited in paper PMC10953113 (Biomedicine & pharmacotherapy = Biomedecine & …, 2024).

Details: no reference given

Arginine vasopressin [AVP]
half-life (T1/2): ~ 10 min
